Measured values taken from publication doi:10.1101/2020.03.08.831909 (2020).

Tests used:
[1] = target: His6-OptoMB_(V416I_G528A_N538E) fused to an N-terminus SUMO tag, purified (Avena sativa, UniProt O49003 408-543, V416I | G528A | N538E); assay: BLI; light conformation (lit-mimetic mutant)
[2] = target: OptoMB_(C450V), light-insensitive, His-tagged, purified (Avena sativa, UniProt O49003 408-543, C450V); assay: BLI; dark conformation (C450V)

Kd [1]: 21.7 µM | koff [1]: 0.0489 s⁻¹ | koff [2]: 0.00753 s⁻¹
B1: YFP-SH2, purified (fusion of yellow fluorescent protein and SH2) (domain or fragment)
chain: SLEKHSWYHGPVSRNAAEYLLSSGINGSFLVRESESSPGQRSISLRYEGRVYHYRINTASDGKLYVSSESRFNTLAELVHHHSTVADGLITTLHYPAPKRNKPTVYGVSPNY
